According to the DeepSol protein solubility set:

assay: soluble on expression in E. coli; label from the status in PepcDB or PDB records

| Sequence | soluble on expression in E. coli |
| --- | --- |
| GPGSMHSEQSICEFIHMQRELRRCYATMENYEVVIAQLRDDCALSRAQLCRFQQEHAQRGKDVEAQVRAELTEQTNARLSALRQSEASDALCLKTSAGPDRNTTDAAEEYRRDTCQATLDELRRALQEEQSAHAECLARLTEALAAKARWKSRAVELLKWRKQVCGQMYMSSTPSSSSFVAGARAIGTCGALPGVSTISNCASDSQAEPNAGNSASDVSSPSQRLYRPPSPYKPPPCVSSPSEAGKLRSSMTSEASAALPASPYEGGTGACAADKENEKDSSSTPGADISCQSDSTAVSFLSPSTTPAGRVAQALGSGVVVVWPPLAERQEMSTRKSAESSRTQSSTTAAALESGNPALLDDSGKQGLQPSPPTSSVSPGVLPSSVGRYTTSAVGSRTQAGCRLPLVGCEKAVVAAEPLRVMPDPFAFPRPPPSGGVTCTNHSLLSTSDELPTSCDVSAAMASSAAERQCNELLRALLDKEQQLALIAEERTKYKRLYEATQS | not soluble |
| MKTPPINQKSLRETESWKLLESSIIYYEGNPIGTVAAQDPELAALNYDQCFLRDFVPSAFVFLMDGQTDIVRNFLIETLTLQSHEKEMDCFQPGAGLMPASFKVESDGSKEYLVADFGEKAIARVPPVDSCMWWILLLRAYEKATGDLTLAREPKFQAGIKLILDLCLAHRFSMYPTMLVPDGAFMIDRRMGVYEHPLEIQVLFYAALRAARELLLPDGDGEQYLNKVHGRLGALQYHIRNYYWVDLKRLREIYRYKGNEFGKEIANKFNIFSQSIPDWVIEWLPEKGGYLAGNLGPGRMDFRFFALGNLMAILAGLASEEESQRIMNLFAHRWEDLIGYMPVKICYPALQGLEWQIVTGCDPKNIPWSYHNGGNWPVLLWLFTAAALKTGKVELAHEAIAIAEGRLSNDKFPEYYDGNNGRLIGKEARIYQTWSIAGLLVAKQFLANPDHVEFISFPDTFIGPGCSLLEHHHHHH | not soluble |
| MSLTLYKPNETDFTHNGIGALDKNIYNATVEEELNGLFLFSFSYPLFAPHGLEIEGMSIIKVPTPDGEQLFRVAAPKASMGEVTAQCYHIFYDLTENLIEDIFAETTNGNGAMNRMSAGCQYKHPFQFYSDVPKIASARIVRKNPVEALLDSSQDNSFVNRWGGELKRDNFDVKMLQNRGMDRGVVIRHKKDLLGYEGNVDWKSPITRIMPQGFDGLFLPEKYVDSPLINKYPHPKIKVVEFKHIKAAIGENADDEDAVPLEEAYRLLRQAAKGMFTIQKADQPKATYNVKFQELSQTEEYKDYKHLQSVYMADTVTVEHQEDGIDIKAKVIAYKYDPIKKEYLDVTIGNFKESFTDVSGRVDLVQEELSNMPSSILDAAKVNATSLINSGFGGHVRVYPNRILIMDTKDEKSAKKVWQWNLNGLGYSSTGVNGPYGTAITSDGRIVADFITAGTLSGNFVRGGEITGSTEGHHHHHH | soluble |
| MGSDKIHHHHHHMNIGGGKFLLGRISNNPTSGIVGLANVGKSTFFQAITNSKLGNPANYPFATIDAECAKVNIPSVPLSNLLRIYQSAKCVPGTLTIYDIAGLTRGASQGHGLGNKFLNDIRHVEGIFQVVRGFLKEDITHIEGNVDPVRDLSVVQDELILKDLEFLENIRERLSKKMRMVSKNSKEHQEMKIETELLDALEEHLFNGKKIRHFKDHWNLDEVKILNKHNFLTSKPTLILLNVSPQDYVRNENKFVRNIIEWINEFSPGDKFLLFSAEFESQLMECKGIASEYFDKIKEDTNVSDQQLVSAIPQIILEMRKLLNLISFFTCGPQEVHQWNIREGTTAQEAAGVIHSDLRETFISADVIKYDDLKKMEPPLNESLLKSKGLIKRAGKQYIMQDNDIALFKAAGGKIKK | not soluble |
| MDLFLALRELGRPDQMNLSYLYLKKILEEELRDHDCQCQLNPDFTVTISCRVDGPHGALYIVPNSDFLKSSSFSDLSAFILNLREEIRRFGEFEAELQTGTG | not soluble |
| MSPMNRQRKNKSHVLNEKDERPGGIIKEKSSVRSMAKTQPPSGRTISLTEINKPNALSKKNTEIKAAVEIQNRLTKKMAKNSERRKQMAHGPEMTAQNRTQERIDFVDFLDRHYQVIQAGVHKIQYTKEEFENVIYEAQTIFSSEKALVDIDPPCVVVGDLHGQFNDLINMFILLGRPPETVYVFTGDYVDRGMMSLECIMLLFTYKICYPENIVLLRGNHEIARVNKKYGFYEECVTSIPKCGEEIWALFQRCFNNLPISALIATKILCMHGGLSPALTCLDELRNHPKPIRNPFRGIVNDMLWADPDPSVFEWKASSRGSGFTFGTNVIDDVCKRLGVELIIRAHQMCFDGYWVLSGRKLITIFSAPMYCNFYKNAGCVLKVDETLGIQMIAFVPASENIEKIIEEKNRVWDISIDCID | not soluble |
| MLSKSLALGRRLTKISSSVKSISSITFKTVDGKPRDALTIHNVDFVIDPDEKMVDEYMKVYGNQRFNFKRNDIDIWRKSFKDSYSLWLVCLKGTNKIVQMSHVLNFPPLLSHNDILHQYHGFFWVDPDYRGKDSMAIMDYIEKHRARNQSDNDAGTFLTTAVTMWTKMHGHADYKHIMYVSYYKPDEMQIPEDLNLDGIFLKNATEVPDMDIVKYDNTVFPYERSKYMLNLLRDPEGFGKVAYDNNGKVIGFGNVIIYPSGECVLTPLYADDSKVAQAIFKSILKEIPLNDKKLLRFQIRSIDQCEGGFEWIQPFVKNPIRKEIMGHMAGSSHPPTVNYKKTYANTPYTTCVI | not soluble |
| MGSDKIHHHHHHMGSSRKVIITCAVTGAIHTPSMSPYLPVTPDEVAQASIGAAEAGAAVIHLHARDPRDGRPTQDPAAFAEFLPRIKSNTDAVINLTTGGSPHMTVEERLRPATHYMPELASLNMGSMNFGLYPMLERFKEFAHGWEREHLERSRDLVFKNTFADIEFILKTCGGNGTRFEFECYDTSHLYNLAHFVDRKLATPPFFVQTVFGLLGGIGPHPEDLAHMRRTADRLFGADYVWSILGAGRHQIPLASIGAAQGANVRVGLEDSLWIAPGELAETNAAQVRKIRQVIEGLSLEVASPAEARTMLGLKGPQNVNF | not soluble |
| MASDGVVVEIGKVTGSVGTTVEIPVYFRGVPSKGIANCDFVFRYDPNVLEIIGIDPGDIIVDPNPTKSFDTAIYPDRKIIVFLFAEDSGTGAYAITKDGVFAKIRATVKSSAPGYITFDEVGGFADNDLVEQKVSFIDGGVNVGNATPTKGATPTNTATPTK | soluble |
| MGSDKIHHHHHHMNDVQQAINSDDIPLTDELVVSYLQDNPEFFNRNNSLMTGLRLNDEQRGTVSLVERQQQQLRQKVYGLEDEITQLMSVANHNEQLFVLYSDLYLRLLDCQSAEELLDCLHQATTELLSLSSFKLWLVSGNNTEVAHHSLSTNDCAGVMQNRLTNDEYYFGRLQESEQTLIFSKPCLGSVVLIKLTHDEQAVGFLAIGSEDAHHFDPRMDTLLLNQFKRLVAKLLHQQLSM | not soluble |
| MLLSIITVAFRNLEGIVKTHASLAHLAQAEDISFEWIVVDGGSNDGTREYLENLNGIYNLRFVSEPDNGIYDAMNKGIAMAQGKFALFLNSGDIFHQDAAYFVRKLKMQKDNVMITGDALLDFGDGHKIKRSAKPGWYIYHSLPASHQAIFFPVSGLKKWRYDLEYKVSSDYALAAKMYKAGYAFKKLNGLVSEFSMGGVSTTNNMELCADAKKVQRQILHVPGFWAELSWHLRQRTTSKTKALYNKS | not soluble |
| MRKISYRFVYNRKKSLNDRGTALVQVEAYLNKKKVYFSTHVYLRPEQWDVKRKIIKDHPNQDALNGMLNEFIIELEKKELSLWRQGKTITLSLIKEEFKSNTDASFLGFARKEIMSSQLKDSTKRNHLTTISLLQSFKPTIEFEDLTYNFVTDFEKNLYESGYQTNTVAKHMKHLKSFVNAAINKGYIDPNNYAFRRYKIKMKEGKHVFLLPEEMKKLEEVSLTGRNSCLEHTLDAFLFCCYTGLRYSDFVNLNEKNIVKMDGKLWLIFDSVKTGTEVKLPLNLLFEGKALTLLQKYQGKWSSFFSIK | not soluble |
| MINRNEEQNFNKLSEVINEYNKLQISQQIDYDKFYLYSIITHSTAIEGSTITEIENQLLFDEGISANKPIHEQLMNLDLKAAYEKSFELAKQHTQITPEILCELSVLVMKNTGTVYNTIGGTFSSAKGELRLVNVSAGRGGKSYMAWQKLPQKLEEFCSWLNSERKSIAEKDIEAQYAFSFLAHYKLVHIHPWADGNGRMSRLLMNVIQYEAGLVPAIIKKENRAEYIQSLASSQDKDDPAEFLHFMFSHHIRNLSEQIEEYKNSLEMSGS | not soluble |
| MDIKRYCPVTDSELPADHVYFKFRSEIEAAEAYLGLAISEGIKVRETREILDIIDTVYNSLSDPESKLNDFQEKRLNFTEEDWYDIKEKANNGNRWSLYMFLARSAVDSAVYWSYRMKETEEFKEIVKEEMISKLLKAGYVILRESLGEVRL | soluble |
| MTIYHFVGIKGSGMSALAQILHDKGFQVQGSDVDKYFFTQKALEEKQIPIMTFSADNIKEGLTIIAGNAFPDTHEEIERANELNLPVIRYHKFLGQLIDGYTSIAITGSHGKTSTTGLLSHVVGAIRPTSYLIGDGTGSGTKDAKYFALEACEYQRHFLAYKPTYAIMTNIDWDHPDYFKSVDDVFNAFETLGKQVKKAVFALGDDVELRKLSLDVPIIYFGFGSENEFQAKNVKKETTGTKFDVYHRDEFLASFEIPAYGDHNVLNALSVIALCDYEGLPVDEVKKELKTFEGVKRRFSITEKGNQVLVDDYAHHPSEIRATVNAARQKYPNKKIVAVFQPHTFTRTRTFLQGFADSLNLADEVYLCDIFGSAREKTGNLTIADLAHKTKGNHIIKEEHTEELLQYPEAVILFMGAGDVQKFQAAYEKVLDNEIVANEVLKKSAIN | not soluble |
| MHIGQFTRQYPAETAFKVQSNPWKNSPEPFLPMSTQQPKSWADVGKVAGPPRNYHHPYEVKPFEAIDEKNDVFSTMGHWNSEQKQSRQQHQQYQQNQYQARQHQYYQNPPPFYQPEQPVHYQSAQQDVFDNIGEWDNSTPIPSQISPLQLDLTLTTPLPTFQPYPSTRSYSLESPTTSVTSNEEKNSWKTIELILNQKSSRSPSITERLSPVDFGPWTSNL | not soluble |
| KKAQLIVAGIGPGSPEDITPAVIQAVKNSDVVIGYKYYFQFIEPYLEPGTECIDTGMKREKARAEQAFELAEQGKTVCVISSGDAGIYGMAPLVYEMKRERGSRVEIEVLPGIS | not soluble |
| MWLFEESAVGFCSNSGVIDNKHAGYTGTGFIDTENAVGASIVWSLSAASAKTYTAQIRFGNGGTSARRATVVVNDSQIKTLDFPTNSNWTQWQTVNVDIPLKAGTNSIKLVAETADGLANIDSIRVTGNGITPAACPLEHHHHHH | soluble |
| MEAYEKHYQELRQAKNIDGKPFQLIPVPVTRKVVKEADCKGSYLNFYIGNEVVLVPVYGDEHDKLGLQIIEGQFPGRRIVGIYVNELYAYGGMIHCVTQQHIELEHHHHHH | not soluble |
| MDALVEDDICILNHEKAHKRDTVTPVSIYSGDESVASHFALVTAYEDIKKRLKDSEKENSLLKKRIRFLEEKLIARFEEETSSVGREQVNKAYHAYREVCIDRDNLKSKLDKMNKDNSESLKVLNEQLQSKEVELLQLRTEVETQQVMRNLNPPSSNWEVEKLSCDLKIHGLEQELELMRKECSDLKIELQKAKQTDPYQEDNLKSRDLQKLSISSDNMQHAYWELKREMSNLHLVTQVQAELLRKLKTSTAIKKGKSLFTGNH | soluble |
| MGSDKIHHHHHHMDTFHLMKVYIAVAEEQGFSAASRRLNMSAPTVTRAVAHLEETLKVKLLNRTTRYVRMTEAGARYLEDAKRILHDVKVANEAALGINATPQGKISVTAPVLFGQQFVLPTITDYLVRYPQTQVNAVFLDRVVNLLEEGHDVGIRIGELHDSSMRAKKVGNVRLILVASPEYLAKNGIPKNCQELAQHTLIAANTGSLNPDWQFLVNKKNQTIKINPRLTVTTNQAAINAAKNGLGITRIISYQVAEELKNNKLKILLENFEYPAKPINIVHREDKFSSAKVRSFIDLLAENLQTNSALN | not soluble |
